Experimental data published in patent US20240116985A1 (published 2024).
Blank lines part the entries; values can stand above or below the binder they belong to. Starred links: 1 amine or outer side, 2 acyl side, 3 side chain; linkers in the order of their positions; H or OH if unused. Positions of bridges follow the written chain, without caps; N, C: chain ends. Non-standard residues stand in square brackets, D forms with d. Primed or numbered codes have the meaning given here. B5(10) = 2-amino-2-(pent-4-en-1-yl)hept-6-enoic acid, bis(4-pentenyl)glycine, stitching residue bearing both staples, C=CCCCC(CCCC=C)(N[*:1])C(=O)[*:2]; PyrS2″ = (S)-3-amino-1-((pent-4-en-1-yloxy)carbonyl)pyrrolidine-3-carboxylic acid (stapling residue), C=CCCCOC(=O)N1CC[C@@](N[*:1])(C(=O)[*:2])C1; TfeGA = (S)-2-amino-3-((carboxymethyl)(2,2,2-trifluoroethyl)amino)propanoic acid, O=C([C@H](CN(CC(=O)[*:3])CC(F)(F)F)N[*:1])[*:2]; PyrS2 = (S)-3-amino-1-((pent-4-en-1-yloxy)carbonyl)pyrrolidine-3-carboxylic acid, C=CCCCOC(=O)N1CC[C@@](N[*:1])(C(=O)[*:2])C1; B5(3) = 2,2-bis(4-pentenyl)glycine (stitching residue), C=CCCCC(CCCC=C)(N[*:1])C(=O)[*:2]; Phe(2-Cl) = N[C@@H](Cc1ccccc1Cl)C(=O)O; Bta = N[C@@H](Cc1csc2ccccc12)C(=O)O; αAllylPro = C=CC[C@@]1(C(=O)O)CCCN1; tBuAla = CC(C)(C)C[C@H](N)C(=O)O; S8 = C=CCCCCCC[C@](C)(N)C(=O)O; hSer = N[C@@H](CCO)C(=O)O

Assays:
B-cat-Halo [1] = molecular target: T1, B-cat-Halo (UniProt P35222 1-781); assay: cell-based or functional assay
T1 sequence (looked up): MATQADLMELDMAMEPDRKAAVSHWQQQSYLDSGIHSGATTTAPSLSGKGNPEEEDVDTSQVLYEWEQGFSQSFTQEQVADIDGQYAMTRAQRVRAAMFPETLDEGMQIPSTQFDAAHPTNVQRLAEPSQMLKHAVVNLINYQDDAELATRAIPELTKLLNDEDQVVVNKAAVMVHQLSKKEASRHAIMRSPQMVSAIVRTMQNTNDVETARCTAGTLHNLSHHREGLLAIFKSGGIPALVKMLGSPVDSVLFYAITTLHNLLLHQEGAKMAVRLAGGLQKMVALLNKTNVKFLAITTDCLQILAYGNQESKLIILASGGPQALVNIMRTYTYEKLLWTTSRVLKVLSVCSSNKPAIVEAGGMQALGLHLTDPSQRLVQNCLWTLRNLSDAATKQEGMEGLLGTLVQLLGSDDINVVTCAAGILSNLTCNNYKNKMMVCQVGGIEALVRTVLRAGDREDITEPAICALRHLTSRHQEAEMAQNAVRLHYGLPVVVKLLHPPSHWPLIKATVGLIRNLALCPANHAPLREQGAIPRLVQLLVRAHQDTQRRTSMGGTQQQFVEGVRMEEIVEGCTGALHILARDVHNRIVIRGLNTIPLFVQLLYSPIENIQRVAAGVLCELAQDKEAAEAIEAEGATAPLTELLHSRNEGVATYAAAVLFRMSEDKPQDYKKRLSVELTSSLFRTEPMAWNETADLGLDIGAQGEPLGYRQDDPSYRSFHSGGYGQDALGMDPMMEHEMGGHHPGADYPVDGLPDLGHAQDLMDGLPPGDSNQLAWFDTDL

[2] = molecular target: T2, beta-catenin in DLD1 TCF/LEF luciferase reporter cells (UniProt P35222 1-781); assay: cell-based or functional assay
T2 sequence (looked up): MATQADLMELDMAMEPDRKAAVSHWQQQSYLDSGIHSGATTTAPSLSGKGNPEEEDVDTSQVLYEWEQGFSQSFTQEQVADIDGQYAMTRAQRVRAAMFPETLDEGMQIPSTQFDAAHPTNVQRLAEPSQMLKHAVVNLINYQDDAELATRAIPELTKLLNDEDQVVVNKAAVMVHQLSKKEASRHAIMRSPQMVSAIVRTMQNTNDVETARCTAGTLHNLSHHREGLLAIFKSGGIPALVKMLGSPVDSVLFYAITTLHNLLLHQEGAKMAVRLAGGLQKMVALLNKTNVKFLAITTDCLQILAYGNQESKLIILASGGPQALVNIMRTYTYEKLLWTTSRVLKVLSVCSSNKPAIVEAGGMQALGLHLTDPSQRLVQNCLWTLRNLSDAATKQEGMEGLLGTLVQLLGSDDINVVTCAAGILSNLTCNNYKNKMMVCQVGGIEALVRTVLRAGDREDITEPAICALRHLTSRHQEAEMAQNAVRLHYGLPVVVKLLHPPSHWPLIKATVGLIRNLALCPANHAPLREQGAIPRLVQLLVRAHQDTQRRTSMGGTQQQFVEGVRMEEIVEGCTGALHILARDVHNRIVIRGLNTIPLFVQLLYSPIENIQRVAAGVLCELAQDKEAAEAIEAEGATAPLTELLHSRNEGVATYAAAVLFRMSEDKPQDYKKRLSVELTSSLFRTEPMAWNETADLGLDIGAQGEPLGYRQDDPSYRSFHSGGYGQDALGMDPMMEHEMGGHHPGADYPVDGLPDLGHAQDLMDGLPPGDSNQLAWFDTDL

[3] = molecular target: T3, full-length beta-Catenin (Uniprot ID P35222) (Homo sapiens (Human), UniProt P35222 1-781); assay: fluorescence polarization competition; full-length beta-catenin + 5FAM-TCF4(10-53) probe
T3 construct: also called bCat; B-Catenin
T3 sequence: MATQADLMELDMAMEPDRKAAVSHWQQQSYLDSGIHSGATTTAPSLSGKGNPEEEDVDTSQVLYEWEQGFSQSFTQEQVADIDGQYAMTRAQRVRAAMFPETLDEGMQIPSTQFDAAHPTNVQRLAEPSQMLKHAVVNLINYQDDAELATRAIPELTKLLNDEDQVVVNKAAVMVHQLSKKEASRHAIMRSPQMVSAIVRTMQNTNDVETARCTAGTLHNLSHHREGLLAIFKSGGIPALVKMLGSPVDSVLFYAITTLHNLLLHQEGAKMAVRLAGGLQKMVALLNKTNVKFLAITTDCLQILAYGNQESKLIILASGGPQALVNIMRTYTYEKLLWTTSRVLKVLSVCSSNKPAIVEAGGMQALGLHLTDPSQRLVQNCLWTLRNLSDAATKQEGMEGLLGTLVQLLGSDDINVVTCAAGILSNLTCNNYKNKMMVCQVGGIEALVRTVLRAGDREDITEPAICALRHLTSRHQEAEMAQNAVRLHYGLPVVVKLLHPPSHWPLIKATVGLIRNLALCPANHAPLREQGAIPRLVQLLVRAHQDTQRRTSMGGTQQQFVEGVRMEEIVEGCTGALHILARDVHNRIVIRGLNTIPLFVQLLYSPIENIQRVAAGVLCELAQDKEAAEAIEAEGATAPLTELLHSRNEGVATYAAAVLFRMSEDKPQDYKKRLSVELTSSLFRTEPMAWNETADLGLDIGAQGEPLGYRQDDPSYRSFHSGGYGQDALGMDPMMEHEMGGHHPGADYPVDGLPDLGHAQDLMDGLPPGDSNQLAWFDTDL
Method: The plate was incubated protected from light for 60 minutes at 20° C. prior to read. Reads were performed on a CLARIOstar plate reader (BMG Labtech) in duplicate, and data were fitted to a 1:1 binding model with hill slope using an in-house script. All provided concentrations are final concentrations.

B-cat-Halo [4] = molecular target: T4, B-cat-Halo (UniProt P35222 1-781); assay: cell-based or functional assay; remark: listed apart in the source
T4 sequence (looked up): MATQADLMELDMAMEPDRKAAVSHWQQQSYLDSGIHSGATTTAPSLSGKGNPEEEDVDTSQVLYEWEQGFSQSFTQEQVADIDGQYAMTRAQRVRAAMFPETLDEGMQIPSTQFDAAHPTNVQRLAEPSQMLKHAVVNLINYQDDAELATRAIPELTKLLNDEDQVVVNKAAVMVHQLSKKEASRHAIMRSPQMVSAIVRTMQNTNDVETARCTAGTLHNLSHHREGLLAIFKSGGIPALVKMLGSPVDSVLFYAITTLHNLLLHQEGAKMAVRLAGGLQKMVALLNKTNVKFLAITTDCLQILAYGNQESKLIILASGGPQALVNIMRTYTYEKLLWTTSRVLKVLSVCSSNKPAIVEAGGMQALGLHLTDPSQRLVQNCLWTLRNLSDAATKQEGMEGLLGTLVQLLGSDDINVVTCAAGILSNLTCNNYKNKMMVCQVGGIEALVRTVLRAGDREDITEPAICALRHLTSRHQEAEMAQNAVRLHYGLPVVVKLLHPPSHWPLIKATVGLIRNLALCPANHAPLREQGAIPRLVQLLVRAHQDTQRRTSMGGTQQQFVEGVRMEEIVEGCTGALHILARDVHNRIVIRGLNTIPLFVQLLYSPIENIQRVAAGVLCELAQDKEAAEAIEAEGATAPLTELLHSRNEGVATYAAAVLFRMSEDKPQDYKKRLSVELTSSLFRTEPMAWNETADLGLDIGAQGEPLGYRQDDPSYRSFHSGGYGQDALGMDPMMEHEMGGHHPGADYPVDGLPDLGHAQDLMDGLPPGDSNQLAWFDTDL

NanoBRET Abs IC50 (B-cat-Halo [1]): 26.3 µM
DLD1 4% Abs IC50 [2]: 5.6 µM
Binder: Ac-[αAllylPro]D[tBuAla][B5(3)]D[TfeGA]AAFS[S8][Phe(2-Cl)][Bta][hSer]-NH2 (staple 1-4, 4-11; also: later-eluting HPLC isomer) [I-999]

EC50 [3]: 10 µM
B1: I-1286 (peptide)
peptide: Ac-[αAllylPro]NA[B5(10)]DTAAFL[PyrS2]F[Bta]Q-NH2
modifications: staple 1-4, 4-11; not fully specified; printed as Ac-PL3-Asn-Ala-B5-Asp-Thr-Ala-Ala-Phe-Leu-PyrS2-Phe-BztA-Gln-NH2

NanoBRET Abs IC50 (B-cat-Halo [4]): 13.9 µM
Binder: Ac-[αAllylPro]D[tBuAla][B5(3)]D[TfeGA]AAFF[PyrS2″]F[Bta]Q-NH2 (staple 1-4, 4-11) [I-988]
